Data reported in patent US7182945.
Like-named read-outs stand apart in the source and are kept apart here. Blank lines part the entries; values can stand above or below the binder they belong to.

Assays:
Settings in all cases: modification not given
[1] = molecular target: T1, human leukocyte cathepsin G (hCG) (human), P08311; assay: other enzyme inhibition
T1 chain: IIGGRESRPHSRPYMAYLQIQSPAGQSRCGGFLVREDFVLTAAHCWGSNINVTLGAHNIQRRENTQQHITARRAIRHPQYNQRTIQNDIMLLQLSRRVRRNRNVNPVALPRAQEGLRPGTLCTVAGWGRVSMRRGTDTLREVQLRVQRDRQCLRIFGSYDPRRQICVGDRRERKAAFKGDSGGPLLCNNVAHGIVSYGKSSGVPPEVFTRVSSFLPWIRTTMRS

[2] = molecular target: T2, human leukocyte elastase (hLE) (human), P08246
T2 chain: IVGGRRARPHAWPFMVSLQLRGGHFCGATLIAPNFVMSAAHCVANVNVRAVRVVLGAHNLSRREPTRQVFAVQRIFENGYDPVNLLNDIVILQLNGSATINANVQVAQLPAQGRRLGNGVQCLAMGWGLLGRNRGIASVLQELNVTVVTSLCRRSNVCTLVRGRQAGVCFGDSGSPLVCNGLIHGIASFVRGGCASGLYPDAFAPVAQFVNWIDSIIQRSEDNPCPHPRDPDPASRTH

[3] = molecular target: T2, human leukocyte elastase (hLE) (human), …
[4] = molecular target: T2, human leukocyte elastase (hLE) (human), …; assay: other enzyme inhibition
[5] = molecular target: T2, human leukocyte elastase (hLE) (human), …
[6] = molecular target: T2, human leukocyte elastase (hLE) (human), …
[7] = molecular target: T2, human leukocyte elastase (hLE) (human), …
[8] = molecular target: T2, human leukocyte elastase (hLE) (human), …
[9] = molecular target: T2, human leukocyte elastase (hLE) (human), …
[10] = molecular target: T2, human leukocyte elastase (hLE) (human), …
[11] = molecular target: T2, human leukocyte elastase (hLE) (human), …
[12] = molecular target: T2, human leukocyte elastase (hLE) (human), …
[13] = molecular target: T2, human leukocyte elastase (hLE) (human), …
[14] = molecular target: T2, human leukocyte elastase (hLE) (human), …
[15] = molecular target: T2, human leukocyte elastase (hLE) (human), …

Ki [1]: 30 µM
B2: peptide 19 (peptide)
chain: EILIFWPKDIGYSFT

Ki [1]: > 200 µM
B5: CRP67-81 (peptide 7) (peptide)
chain: WSKDIGYSFTVGGSE

Ki [5]: 4.5 µM | Ki [1]: 15 µM
B8: CRP63-76 (peptide 11) (peptide)
chain: ILIFWSKDIGYSFT

Ki [7]: 85 µM | Ki [1]: 180 µM
B10: CRP57-71 (peptide 5) (peptide)
chain: KRQDNEILIFWSKDI

Ki [1]: > 200 µM
B16: CRP77-91 (peptide 9) (peptide)
chain: VGGSEILFEVPEVTV

Ki [13]: 3 µM | Ki [1]: 5.5 µM
B17: peptide 22 (peptide)
chain: EILIFWSKAIGYSFT

The next lines start with the binder.

B1: CRP72-86 (peptide 8) (peptide)
chain: GYSFTVGGSEILFEV
Ki [1]: > 200 µM

B3: CRP62-76 (peptide 6) (peptide)
chain: EILIFWSKDIGYSFT
Ki [2]: 0.18 µM | Ki [1]: 0.25 µM

B4: CRP62-73 (peptide 13) (peptide)
chain: EILIFWSKDIGY
Ki [3]: 1.1 µM | Ki [1]: 4 µM

B6: CRP52-66 (peptide 4) (peptide)
chain: FSYATKRQDNEILIF
Ki [1]: > 200 µM

B7: CRP37-51 (peptide 1) (peptide)
chain: LHFYTELSSTRGYSI
Ki [4]: > 200 µM

B9: peptide 26 (peptide)
chain: EILIFWSVDI
Ki [6]: 2 µM

B11: CRP62-71 (peptide 14) (peptide)
chain: EILIFWSKDI
Ki [8]: 6.7 µM | Ki [1]: 6 µM

B12: CRP55-83 (peptide 17) (peptide)
chain: ATKRQDNEILIFWSKDIGYSFTVGGSEIL
Ki [9]: 7.3 µM | Ki [1]: 5.5 µM

B13: peptide 24 (peptide)
chain: TFSYGIDKSWFILIE
Ki [10]: 10 µM

B14: peptide 18 (peptide)
chain: DILIFWSKDIGYSFT
Ki [11]: 2.2 µM | Ki [1]: 2.6 µM

B15: CRP82-96 (peptide 10) (peptide)
chain: ILFEVPEVTVAPVHI
Ki [12]: 55 µM | Ki [1]: 150 µM

B18: peptide 25 (peptide)
chain: EILIFWSADI
Ki [14]: 3 µM

B19: peptide 23 (peptide)
chain: EILIFWSKEIGYSFT
Ki [15]: 0.55 µM | Ki [1]: 0.85 µM
